Results as given in paper PMC5583966, “Sustained-release study on Exenatide loaded into mesoporous silica nanoparticles: in vitro characterization and in vivo evaluation” (DARU Journal of Pharmaceutical Sciences, 2017).

Columns and labels:
[1] = Pharmacokinetics study after s.c. injection in SD rats; type: in vivo
Procedure: Pharmacokinetic studies of EXT-Sol and EXT-SBA-15 were conducted in healthy male SD rats. Sixteen rats were randomly divided into two groups (n = 8) and fasted overnight with free access to water before administration. SD rats were received s.c. administration of EXT-Sol and EXT-SBA-15 at a single EXT dose of 50 μg/kg, respectively. The blood samples (0.5 mL) of EXT-Sol treatment group were collected from the rat’s orbit and at specific time 0, 0.25, 0.5, 1, 1.5, 2, 3, 4, 6, 8 h after injection. The blood samples (0.5 mL) of EXT-SBA-15 treatment group (0.5 mL) were collected at 0, 0.5, 1, 1.5, 2, 3, 5, 8, 12, 24, 36, 48, 72, 120 h. The collected blood samples were centrifuged at 503×g for 10 min to obtain the plasma, which were stored at −80 °C for further analysis. The plasma concentrations of EXT were measured by Exendin-4 ELISA kit according to the instructions supplied by the manufacturer. The relevant pharmacokinetic parameters were analyzed by PKSolver 2.0 [25].

[2] = test system: STZ-induced type 2 diabetic ICR mice (blood glucose); assay: In vivo pharmacodynamics study: blood glucose of STZ-induced type 2 diabetic mice; conditions: s.c., EXT 3 μg/kg/d twice daily, days 0-25, measured before administration, n = 6
Procedure: Type 2 diabetes model was induced by STZ with multiple injection method into ICR mice. Each mouse was injected intraperitoneally with 30 mg/kg⋅d STZ in 0.1 mol/L citric acid buffer (pH 5.0). One week after the injection, mice were fasted for 12 h (with free access to water) before their blood glucose was measured by glucometer (Accu-Chek Performa, Germany). Diabetic mice were considered by fasting blood glucose above 11.1 mmol/L. Six healthy normal ICR mice were used as the blank control group (A). Twenty-four mice that had developed type 2 diabetes were randomly divided into four experimental groups and received s.c. administration of saline (B), EXT-Sol (C), EXT-SBA-15 (D) and SBA-15 (E), respectively. Group A and B received saline twice daily via s.c. administration. Group C received EXT-Sol twice daily with a dose of EXT (3 μg/kg/d). Group D and E were administrated a single injection of EXT-SBA-15 (600 μg/kg) and SBA-15 via s.c. administration, respectively. The blood sample (about 0.2 ml) was collected from the tail-vein on days 0, 1, 5, 10, 15, 20, 25 for all groups, and blood glucose levels were determined measured simultaneously with a glucometer before administration.

[3] = single EXT dose 50 μg/kg, plasma, Exendin-4 ELISA, Mean ± SD, n = 8
[4] = single EXT dose 50 μg/kg, plasma, Exendin-4 ELISA, two-compartment model, Mean ± SD, n = 8

**Q.** Which “time at which plasma concentration had decreased to baseline” value ([1]; EXT dose 50 μg/kg) does the source give for “EXT-Sol: Exenatide (EXT) solution, injected s.c. as comparator” here?
**A.** 8 h

**Q.** And the AUC0→t [1, 3]?
**A.** 1.71 ± 0.07 ng⋅ml^−1⋅h

**Q.** And the “AUC0→∞” value [1, 3]?
**A.** 1.71 ± 0.07 ng⋅ml^−1⋅h

**Q.** What about the “MRT mean residence time” value [1, 3] of the same substance?
**A.** 68.4 ± 4.2 min

**Q.** And the “c max peak concentration” value [1, 3]?
**A.** 1.16 ± 0.09 ng⋅ml^−1

**Q.** And the “t 1/2(α) half-life of distribution” value [1, 4]?
**A.** 13.2 ± 1.8 min

**Q.** And the “t 1/2(β) half-life of elimination” value [1, 4]?
**A.** 36 ± 4.8 min

**Q.** What about the “long-term glucose lowering effect, up to 25 days” value [2] of the same substance?
**A.** not observed
